One molecule from paper PMC4510650, “TD-60 links RalA GTPase function to the CPC in mitosis” (Nature Communications, 2015) can be followed below.

The target of this test is T1, human TD-60 with an amino-terminal streptavidin-binding protein (SBP) tag (human, UniProt Q9P258 1-522).
T1 construct: TD-60 (RCC2), human; cDNA codon optimized and made synthetically; The far-western sentence says only 'purified TD-60'; The GEF assay names it 'SBP-tagged recombinant TD-60'; far-western methods are in the Supplementary Methods; also called SBP-TD-60; RCC2; source: Sf9 cells (baculovirus, pFastBacI), purified
Nature of the test: far-Western; purified RalA or purified Ran tested on purified TD-60; details only in the Supplementary Methods. The following applies: both partners purified.

T1 sequence (Q9P258 whole entry): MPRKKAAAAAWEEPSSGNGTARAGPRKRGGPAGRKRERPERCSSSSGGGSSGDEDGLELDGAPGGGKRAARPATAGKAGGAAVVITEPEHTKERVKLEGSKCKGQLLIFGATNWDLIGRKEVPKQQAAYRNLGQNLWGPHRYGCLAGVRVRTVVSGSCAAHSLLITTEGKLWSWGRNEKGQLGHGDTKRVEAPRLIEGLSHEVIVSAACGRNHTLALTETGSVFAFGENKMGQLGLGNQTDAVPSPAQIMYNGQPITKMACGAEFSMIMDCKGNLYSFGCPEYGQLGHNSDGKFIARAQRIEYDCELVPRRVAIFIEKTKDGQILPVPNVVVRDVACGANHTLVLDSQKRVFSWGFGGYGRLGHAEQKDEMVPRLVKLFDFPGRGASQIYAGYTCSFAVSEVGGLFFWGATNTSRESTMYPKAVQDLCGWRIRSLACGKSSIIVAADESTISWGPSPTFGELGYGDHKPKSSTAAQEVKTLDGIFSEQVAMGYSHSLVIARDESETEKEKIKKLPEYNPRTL

B1: purified human RalA (cloned into pFAT2) (natural protein, UniProt P11233 1-206, looked up)
chain: MAANKPKGQNSLALHKVIMVGSGGVGKSALTLQFMYDEFVEDYEPTKADSYRKKVVLDGEEVQIDILDTAGQEDYAAIRDNYFRSGEGFLCVFSITEMESFAATADFREQILRVKEDENVPFLLVGNKSDLEDKRQVSVEEAKNRAEQWNVNYVETSAKTRANVDKVFFDLMREIRARKMEDSKEKNGKKKRKSLAKRIRERCCIL
notes: RalA, human; The RalA of the GEF assay is called GST-tagged; also called Ras-related protein RalA; source: purified; cloned into pFAT2
On to B1, for which the binding result is given as “binds”.
